In doi:10.1101/2022.11.15.516577:
Like-named read-outs stand apart in the source and are kept apart here.

What was measured:
Assay in all cases: single-molecule TIRF colocalisation with deconvolution of colocalisation times
[1] = target: N-terminally SNAP-tagged human β2AR carrying the vasopressin V2 receptor C-tail (SNAP-β2V2)
[2] = target: N-terminally SNAP-tagged human β2AR carrying the vasopressin V2 receptor C-tail (SNAP-β2V2); remark: listed apart in the source
[3] = target: N-terminally SNAP-tagged human β2AR carrying the vasopressin V2 receptor C-tail (SNAP-β2V2); remark: listed apart in the source

Measured: average interaction time

C-terminally Halo-tagged bovine β-arrestin 2 (βArr2-Halo) (from UniProt P32120-2 1-409) (natural protein)
1 s: all assays above
